According to US20250179152A1:

B1: SR16m (designed binder)
chain: MGSSDLGKKLLEAARAGQDDEVRILMANGADVNALDLFGVTPLHLAAERGHLEIVEVLLKNGADVNAGDAFGRTPLHLAALGGHLEIVEVLLKNGADVNACDLYGVTPLHLAAGLGHLEIVEVLLKNGADVNAQDKFGKTAFDISIDNGNEDLAEILQSSSKLAAALEHHHHHH
B2: SR22 (designed binder)
chain: MGSSHHHHHHSSGLVPRGSHMEQKLISEEDLGSDLGKKLLEAARAGQDDEVRILMANGADVNACDPSGITPLHLAADKGHLEIVEVLLKYGADVNAMDVWGRTPLHLAAFTGHLEIVEVLLKYGADVNACDLNGYTPLHLAAGRGHLEIVEVLLKNGAGVNAQDKFGKTAFDISIDNGNEDLAEILQSSS
B3: FSR16m (designed binder)
chain: MGMEQKLISEEDLDGYIPEAPRDGQAYVRKDGEWVLLSTFLGGGGSLQGGGGSLQGSDLGKKLLEAARAGQDDEVRILMANGADVNALDLFGVTPLHLAAERGHLEIVEVLLKNGADVNAGDAFGRTPLHLAALGGHLEIVEVLLKNGADVNACDLYGVTPLHLAAGLGHLEIVEVLLKNGADVNAQDKFGKTAFDISIDNGNEDLAEILQSSSKLAAALEHHHHHH

Target: wild type Δ19 spike protein on pseudotyped lentivirus (SARS-CoV-2 (Wuhan-1)), P0DTC2
Experiment: cell-based or functional assay

Binder	IC50, pseudotyped lentivirus	Neutralization IC50, pseudotyped lentivirus	fold enhancement of neutralization IC50 upon trimerization (against SR16m)
B1	11 µM	11.6 µM	
B2		0.7 µM	
B3			35000 fold
